Source: patent US20180057604A1

How the values were obtained:
[1] = molecular target: cyno TfR extracellular domain (analogous construct to human TfR ecd) (cynomolgus monkey); test: SPR, bispecific antibody
[2] = molecular target: human TfR extracellular domain with N-terminal His tag (human) (UniProt P02786); test: SPR, bispecific antibody
human TfR extracellular domain with N-terminal His tag (human), sequence (P02786 89-760 G142S): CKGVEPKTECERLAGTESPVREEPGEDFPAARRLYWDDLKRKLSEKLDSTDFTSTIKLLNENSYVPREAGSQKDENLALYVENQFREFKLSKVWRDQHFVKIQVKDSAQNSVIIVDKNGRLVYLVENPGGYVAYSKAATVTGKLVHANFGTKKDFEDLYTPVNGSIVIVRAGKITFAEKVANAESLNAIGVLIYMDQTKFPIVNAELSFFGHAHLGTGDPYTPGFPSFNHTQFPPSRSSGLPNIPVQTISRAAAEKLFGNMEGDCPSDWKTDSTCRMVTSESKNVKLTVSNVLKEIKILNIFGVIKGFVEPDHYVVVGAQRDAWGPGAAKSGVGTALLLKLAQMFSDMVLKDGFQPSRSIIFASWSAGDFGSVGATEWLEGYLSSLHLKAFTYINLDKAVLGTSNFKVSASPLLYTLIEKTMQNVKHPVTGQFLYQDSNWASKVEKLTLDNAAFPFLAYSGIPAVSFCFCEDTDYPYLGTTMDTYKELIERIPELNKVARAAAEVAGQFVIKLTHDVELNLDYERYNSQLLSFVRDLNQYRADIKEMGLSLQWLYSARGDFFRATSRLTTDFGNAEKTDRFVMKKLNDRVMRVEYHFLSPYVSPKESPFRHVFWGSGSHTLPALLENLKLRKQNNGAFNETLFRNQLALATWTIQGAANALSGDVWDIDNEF

cyno TfR extracellular domain (analogous construct to human TfR ecd) (cynomolgus monkey), sequence (Q5RDH6 other isoform, or with tags, fused parts or gaps): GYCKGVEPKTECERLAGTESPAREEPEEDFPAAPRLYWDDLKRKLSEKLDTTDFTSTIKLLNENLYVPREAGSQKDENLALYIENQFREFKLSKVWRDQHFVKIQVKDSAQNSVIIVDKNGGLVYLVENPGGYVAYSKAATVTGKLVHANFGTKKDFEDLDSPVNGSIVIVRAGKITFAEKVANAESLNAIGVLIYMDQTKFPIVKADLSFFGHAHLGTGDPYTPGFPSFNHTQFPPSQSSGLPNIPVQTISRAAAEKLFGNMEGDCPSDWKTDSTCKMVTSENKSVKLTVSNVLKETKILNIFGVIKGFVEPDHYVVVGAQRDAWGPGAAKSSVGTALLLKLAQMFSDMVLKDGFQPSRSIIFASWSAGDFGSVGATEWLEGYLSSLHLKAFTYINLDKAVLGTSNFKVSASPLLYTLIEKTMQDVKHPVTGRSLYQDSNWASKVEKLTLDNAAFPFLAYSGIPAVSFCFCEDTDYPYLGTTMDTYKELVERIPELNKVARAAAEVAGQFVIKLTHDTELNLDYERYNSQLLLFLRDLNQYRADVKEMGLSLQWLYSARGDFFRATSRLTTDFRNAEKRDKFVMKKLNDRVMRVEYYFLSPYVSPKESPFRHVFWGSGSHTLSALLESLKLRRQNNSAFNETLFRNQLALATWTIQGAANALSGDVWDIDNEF

Kd [1]: 143 nM | Kd [2]: 24 nM
B1: anti-TfR^53A/BACE1 bispecific antibody (15G11.T53A arm) (bispecific antibody, part only; not given: anti-BACE1 arm and constant regions, V domains shown, not shown: another chain or arm of the molecule; a dimerising Fc or GST; small tags and cut ends)
VH: EVQLVQSGAEVKKPGASVKVSCKASGYTFTSYWMHWVRQAPGQRLEWIGEINPANGRTNYIEKFKSRATLTVDKSASTAYMELSSLRSEDTAVYYCARGTRAYHYWGQGTMVTVSS
VL: DIQMTQSPSSLSASVGDRVTITCRASDNLYSNLAWYQQKPGKSPKLLVYDATNLADGVPSRFSGSGSGTDYTLTISSLQPEDFATYYCQHFWGTPLTFGQGTKVEIK
